Results reported in patent US20260158151A1.

Target: RAS (endogenous RAS of human pancreatic PANC-1 cells and PANC-1 xenograft tumours, detected with a pan-RAS antibody)
Experiment: cell-based or functional assay

Which results are given for “RRSP protein expressed in cells from rrsp mRNA delivered by PPDP2 nanoparticles (from UniProt A0A2S3R7M0 3596-4089) (enzyme)”?
cell proliferation measured by crystal violet staining, PANC-1 cells, 1.25 µg PPDP2-rrsp: > 60 % reduction; total levels of intact RAS, western blot with pan-RAS antibody, PANC-1 cells treated with PPDP2-rrsp: 40 % reduction
